This note sets out measurements from patent publication US20210147561A1 (published 2021).

The term Kd denotes the constant that tells how readily two partners part at equilibrium. A high value points to lower affinity.

For assay [1], the target named is T1, CD123 (interleukin-3 receptor alpha, IL3RA) (human, UniProt P26951 19-378).
T1 chain: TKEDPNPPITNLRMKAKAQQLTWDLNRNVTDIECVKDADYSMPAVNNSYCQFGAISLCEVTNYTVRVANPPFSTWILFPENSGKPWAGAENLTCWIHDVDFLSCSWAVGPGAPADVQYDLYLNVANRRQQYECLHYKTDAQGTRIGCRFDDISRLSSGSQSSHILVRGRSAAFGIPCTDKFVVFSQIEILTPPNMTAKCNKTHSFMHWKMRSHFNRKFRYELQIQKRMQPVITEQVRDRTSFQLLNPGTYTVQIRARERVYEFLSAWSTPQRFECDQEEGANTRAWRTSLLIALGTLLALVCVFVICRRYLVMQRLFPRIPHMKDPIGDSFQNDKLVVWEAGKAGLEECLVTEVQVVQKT

Assay [2] addresses T1, CD123 (interleukin-3 receptor alpha, …).

B1: 7G3_H1L1_Fab_His (XENP 13761) (antibody, V domains shown)
VH: QVQLVQSGAEVKKPGASVKVSCKASGYTFTDYYMKWVRQAPGQSLEWMGDIIPSNGATFYNQKFQGRVTMTVDRSTSTAYMELSSLRSEDTAVYYCTRSHLLRASWFAYWGQGTLVTVSS
VL: DFVMTQSPDSLAVSLGERATINCKSSQSLLNSGNQKNYLTWYQQKPGQPPKLLIYWASTRESGVPDRFTGSGSGTDFTLTISSLQAEDVAVYYCQNDYSYPYTFGGGTKLEIKR
Molecule B1 yielded a Ka in assay [1] of 4.81e+08 M⁻¹. The same molecule had a Kd in assay [2] of 2.08 nM.
